Measurements as given in article PMC9400090, “Cyclin-dependent kinase 1 depolymerizes nuclear lamin filaments by disrupting the head-to-tail interaction of the lamin central rod domain” (The Journal of Biological Chemistry, 2022).

T1: L59R mutant lamin 1 to 300 fragment (human, UniProt P02545 1-300, L59R)
T1 construct: lamin A/C, residues 1-300, with the genetic (laminopathy) mutation L59R; also called L59R-harboring lamin 1 to 300; L59R lamin 1 to 300
T1 sequence (looked up): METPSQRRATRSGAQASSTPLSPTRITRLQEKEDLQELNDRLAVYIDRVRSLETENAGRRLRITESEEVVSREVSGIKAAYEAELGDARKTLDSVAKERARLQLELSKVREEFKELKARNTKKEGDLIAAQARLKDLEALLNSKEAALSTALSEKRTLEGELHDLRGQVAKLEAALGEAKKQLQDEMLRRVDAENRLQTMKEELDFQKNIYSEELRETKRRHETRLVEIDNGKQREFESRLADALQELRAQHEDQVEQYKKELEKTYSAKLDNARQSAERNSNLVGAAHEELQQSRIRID

T2: WT lamin 1 to 300 fragment (lamin A/C residues 1-300) (human, UniProt P02545 1-300)
T2 construct: lamin A/C, residues 1-300 (head region 1-27 and part of the central rod domain); The abstract says purified proteins were used; also called lamin 1-300; lamin N-terminal 1 to 300 fragment
T2 sequence (looked up): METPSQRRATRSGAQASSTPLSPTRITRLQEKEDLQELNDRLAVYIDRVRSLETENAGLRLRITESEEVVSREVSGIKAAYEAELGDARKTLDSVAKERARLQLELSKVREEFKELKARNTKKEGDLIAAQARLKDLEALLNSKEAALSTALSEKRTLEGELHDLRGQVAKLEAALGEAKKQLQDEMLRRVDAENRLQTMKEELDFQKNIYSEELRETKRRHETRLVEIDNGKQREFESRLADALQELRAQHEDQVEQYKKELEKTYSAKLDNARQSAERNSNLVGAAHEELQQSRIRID

B1: GST-fused lamin 250 to 400 fragment (human lamin A/C residues 250-400) (domain or fragment, UniProt P02545 250-400, looked up)
chain: AQHEDQVEQYKKELEKTYSAKLDNARQSAERNSNLVGAAHEELQQSRIRIDSLSAQLSQLQKQLAAKEAKLRDLEDSLARERDTSRRLLAEKEREMAEMRARMQQQLDEYQELLDIKLALDMEIHAYRKLLEGEEERLRLSPSPTSQRSRG
notes: human lamin A/C, residues 250-400: most of coil 2 (242-385) and a C-terminal flanking region (386-400); also called GST-lamin coil 250-400; lamin C-terminal 250 to 400 fragment; source: E. coli, purified (glutathione-agarose, HiTrap Q, desalting); not shown: GST, N-terminal, kept

Assays:
lamin A/C 250-400 = lamin A/C 250-400 (UniProt P02545); test: GST pull-down, SDS-PAGE; conditions: reference: wild type, CDK1 treated
[1] = target: T1, L59R mutant lamin 1 to 300 fragment; test: pull-down; GST-fused coil 2C fragment (5 μM) on GSH-agarose resin with lamin N-terminal fragments (20 μM); 20 mM Tris-HCl pH 7.5, 50 mM NaCl, 1 h at room temperature; eluted with 20 mM GSH; SDS-PAGE or Phos-tag SDS-PAGE; conditions: both partners purified
[2] = target: T2, WT lamin 1 to 300 fragment (lamin A/C …); test: as above; conditions: both partners purified
[3] = target: the molecule itself; test: cross-linking; disulfide bond between Cys146 of two coiled-coil dimers as read-out of the A11 tetramer; Phos-tag SDS-PAGE with nonreducing loading dye
[4] = target: B1; test: pull-down; GST-fused coil 2C fragment (5 μM) on GSH-agarose resin with lamin N-terminal fragments (20 μM); 20 mM Tris-HCl pH 7.5, 50 mM NaCl, 1 h at room temperature; eluted with 20 mM GSH; SDS-PAGE or Phos-tag SDS-PAGE; conditions: both partners purified

Molecule	binding result [4]	other results
lamin A/C 1-125 (from UniProt P02545) S22A, CDK1 treated	–	binding against the reference (lamin A/C 250-400; sites S22): stronger
lamin A/C 1-125 (from UniProt P02545) T19A, CDK1 treated	–	binding against the reference (lamin A/C 250-400; sites T19): stronger
B1	–	binding result [1]: binds; binding result [2]: binds
A146C mutant lamin 1 to 300 fragment (domain or fragment, human, UniProt P02545 1-300, looked up, lamin A/C, residues 1-300; Cys146 forms a disulfide between two coiled-coil dimers within the A11 tetramer; also called lamin 1 to 300 (A146C)) METPSQRRATRSGAQASSTPLSPTRITRLQEKEDLQELNDRLAVYIDRVRSLETENAGLRLRITESEEVVSREVSGIKAAYEAELGDARKTLDSVAKERARLQLELSKVREEFKELKARNTKKEGDLIAAQARLKDLEALLNSKECALSTALSEKRTLEGELHDLRGQVAKLEAALGEAKKQLQDEMLRRVDAENRLQTMKEELDFQKNIYSEELRETKRRHETRLVEIDNGKQREFESRLADALQELRAQHEDQVEQYKKELEKTYSAKLDNARQSAERNSNLVGAAHEELQQSRIRID	–	binding result [3]: binds
WT lamin 1 to 125 fragment (human lamin A/C, residues 1-125) (domain or fragment, UniProt P02545 1-125, looked up) METPSQRRATRSGAQASSTPLSPTRITRLQEKEDLQELNDRLAVYIDRVRSLETENAGLRLRITESEEVVSREVSGIKAAYEAELGDARKTLDSVAKERARLQLELSKVREEFKELKARNTKKEG	binds	–
lamin 1 to 125 fragment T19D/S22D (domain or fragment, human, UniProt P02545 1-125, looked up, also called phosphorylation-mimicking dual mutant) METPSQRRATRSGAQASSDPLDPTRITRLQEKEDLQELNDRLAVYIDRVRSLETENAGLRLRITESEEVVSREVSGIKAAYEAELGDARKTLDSVAKERARLQLELSKVREEFKELKARNTKKEG	binds	–
lamin 1 to 125 fragment S22A (domain or fragment, human, UniProt P02545 1-125, looked up) METPSQRRATRSGAQASSTPLAPTRITRLQEKEDLQELNDRLAVYIDRVRSLETENAGLRLRITESEEVVSREVSGIKAAYEAELGDARKTLDSVAKERARLQLELSKVREEFKELKARNTKKEG	binds	–
lamin 1 to 125 fragment T19A (domain or fragment, human, UniProt P02545 1-125, looked up) METPSQRRATRSGAQASSAPLSPTRITRLQEKEDLQELNDRLAVYIDRVRSLETENAGLRLRITESEEVVSREVSGIKAAYEAELGDARKTLDSVAKERARLQLELSKVREEFKELKARNTKKEG	binds	–
lamin 1 to 125 fragment T19A/S22A (domain or fragment, human, UniProt P02545 1-125, looked up, also called double mutant) METPSQRRATRSGAQASSAPLAPTRITRLQEKEDLQELNDRLAVYIDRVRSLETENAGLRLRITESEEVVSREVSGIKAAYEAELGDARKTLDSVAKERARLQLELSKVREEFKELKARNTKKEG	binds	–
